Assay results published in patent US20240392020A1 (JIANGSU HENGRUI PHARMACEUTICALS, published 2024).
Residue numbers refer to the chain shown, from its start. Values belong to the binder of their own block, whether it stands above or below them.

Assays:
[1] = molecular target: T1, B7H3 on the recombinant cell line CT26-B7H3 (UniProt Q5ZPR3 29-534, limits assumed); experiment: FACS, CT26-B7H3 cells
T1 construct: whole, on cells
T1 sequence (looked up): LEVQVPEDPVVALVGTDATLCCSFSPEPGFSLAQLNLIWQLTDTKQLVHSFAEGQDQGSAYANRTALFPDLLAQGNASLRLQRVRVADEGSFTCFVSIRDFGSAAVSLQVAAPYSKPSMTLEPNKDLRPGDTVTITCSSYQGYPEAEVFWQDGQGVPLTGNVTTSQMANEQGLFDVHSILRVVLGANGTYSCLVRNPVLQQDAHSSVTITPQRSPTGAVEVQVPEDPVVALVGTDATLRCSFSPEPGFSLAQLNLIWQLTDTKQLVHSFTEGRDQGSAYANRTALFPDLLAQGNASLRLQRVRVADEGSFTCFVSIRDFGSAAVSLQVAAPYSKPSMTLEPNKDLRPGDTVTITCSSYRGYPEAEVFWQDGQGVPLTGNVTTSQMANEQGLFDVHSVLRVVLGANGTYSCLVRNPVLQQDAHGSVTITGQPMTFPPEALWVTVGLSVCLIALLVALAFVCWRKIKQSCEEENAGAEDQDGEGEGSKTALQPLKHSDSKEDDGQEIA

hIL-5 = molecular target: T2, hIL-5 (human, UniProt P05113 20-134); experiment: ELISA
T2 construct: bought
Description: For an antibody targeting a soluble protein, the binding activity of the antibody against the soluble protein was detected by ELISA. […] After the blocking was completed, the blocking solution was discarded; and the plate was washed 3 times with a PBST buffer (pH 7.4, PBS containing 0.1% tween-20). 100 μL of the antibody solution diluted in a gradient was added to each well, and the mixture was incubated at 37° C. for 1 h. After the incubation was completed, the plate was washed 3 times with PBST. […] The plate was washed 3 times with PBST. […] The reaction was stopped by adding 50 μL of 1 M H₂SO₄ to each well. The absorbance values at 450 nm were read on a microplate reader, the binding curves of the antibodies to an antigen were fitted with software, and the EC₅₀ values were calculated.

CEA on MKN45 cells = molecular target: T3, CEA on MKN45 cells (UniProt P06731 35-685); experiment: FACS, MKN45 cells
T3 construct: whole, on cells
T3 sequence (looked up): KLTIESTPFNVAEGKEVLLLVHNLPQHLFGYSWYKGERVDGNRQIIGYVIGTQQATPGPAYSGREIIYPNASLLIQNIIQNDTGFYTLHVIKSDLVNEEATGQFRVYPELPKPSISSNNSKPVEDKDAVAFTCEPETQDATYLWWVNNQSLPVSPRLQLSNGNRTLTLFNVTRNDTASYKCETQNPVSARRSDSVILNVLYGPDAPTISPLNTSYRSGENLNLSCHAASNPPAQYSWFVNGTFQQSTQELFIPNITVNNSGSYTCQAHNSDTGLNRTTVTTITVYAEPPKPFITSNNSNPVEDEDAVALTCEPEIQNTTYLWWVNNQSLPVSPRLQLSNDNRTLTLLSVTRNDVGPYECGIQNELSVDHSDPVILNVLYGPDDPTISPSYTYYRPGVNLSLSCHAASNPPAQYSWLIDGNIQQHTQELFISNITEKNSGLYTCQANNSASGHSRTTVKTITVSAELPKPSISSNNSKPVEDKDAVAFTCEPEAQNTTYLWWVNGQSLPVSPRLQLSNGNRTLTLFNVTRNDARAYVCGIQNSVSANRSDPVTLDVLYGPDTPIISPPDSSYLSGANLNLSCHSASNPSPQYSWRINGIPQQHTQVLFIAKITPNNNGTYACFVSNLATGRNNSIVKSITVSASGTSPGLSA

B2: F16 (antibody)
heavy: not shown
light: DTVVTQEPSFSVSPGGTVTLTCGLSSGSVSTSHYPSWYQQTPGQAPRMLIYNTNTRSSGVPDRFSGSILGNKAALTITGAQADDESDYYCAIHVDRDIWVFGGGTKLTVLSGAPRFLTRPKAFVVSVGKDATLSSQIVGNPTPQVSWEKDQQPVAAGARFRLAQDGDLYRLTILDLALGDSGQYVSRARNAIGEAFACVGLQVDAEA
- EC50 [1]: 2 nM

B9: H11 (antibody)
heavy: not shown
light: DIQMTQSPSSVSASVGDRVTITCRASQDIANYLSWYQQKPGKSPKLLIYGTSNLEVGVPSRFSGSRSGTDFTLTISSLQPEDFATYYCLQDKEFPRTFGGGTKVEIKQGSPPEFLRFPRPVRVVSGAEAELKCVVLGEPPPVVVWEKGGQQLAASERLSFPADGAEHGLLLTAALPTDAGCYVCRARNAAGEAYAAAAVTVLEPP
- EC50 (hIL-5): 3.38 nM

B13: H12 (antibody)
heavy: not shown
light: B9 light with C181V, G191C
- EC50 (hIL-5): 4.34 nM

B14: F24 (antibody)
heavy: not shown
light: DTVVTQEPSFSVSPGGTVTLTCGLSSGSVSTSHYPSWYQQTPGQAPRMLIYNTNTRSSGVPDRFSGSILGNKAALTITGAQADDESDYYCAIHVDRDIWVFGGGTKLTVLDQPQFSGAPRFKTRPKAFVVSVGKDATLSSQIVGNPTPQVSWEKDQQPVAAGARFRLAQDGDLYRLKILDLALGDSGQYVSRARNAIGEAFACVGLQVDAEA
- EC50 [1]: 2.4 nM

B15: F25 (antibody)
heavy: not shown
light: B14 light
- EC50 [1]: 2.6 nM

B23: N11 (antibody)
heavy: not shown
light: EIVLTQSPGTLSLSPGERATLSCRASQNINNRFLAWYQQRPGQAPRLLIYAASSRATGVPDRFSGSGSGTDFTLTISRLEAEDFAMYHCQQYGSFPRTFGQGTMVDIKSGAPRFKTRPKAFVVSVGKDATLSSQIVGNPTPQVSWEKDQQPVAAGARFRLAQDGDLYRLKILDLALGDSGQYVSRARNAIGEAFACVGLQVDAEA
- EC50 (CEA on MKN45 cells): 5 nM

B27: R7 (antibody)
heavy: not shown
light: DIQMTQSPSSLSASVGDRVTITCLASEGISSYLAWYQQKPGKAPKLLIYGANSLQTGVPSRFSGSGSATDYTLTISSLQPEDFATYYCQQSYKFPNTFGQGTKVEVKSGAPRFLTRPKAFVVSVGKDATLSCQIVGNPTPQVSWEKDQQPVAAGARFRLAQDGDLYRLTILDLALGDSGQYVCRARNAIGEAFACVGLQVDAEA
- EC50 (hIL-5): 4.89 nM

B28: R8 (antibody)
heavy: not shown
light: B27 light with A110C, C195A
- EC50 (hIL-5): 3.84 nM

B29: R9 (antibody)
heavy: not shown
light: B27 light with R116C, C195A
- EC50 (hIL-5): 3.95 nM

B30: R11 (antibody)
heavy: not shown
light: B27 light with A110C, C132S, C183S, C195A
- EC50 (hIL-5): 3.3 nM

B32: H5 (antibody)
heavy: not shown
light: DIQMTQSPSSVSASVGDRVTITCRASQDIANYLSWYQQKPGKSPKLLIYGTSNLEVGVPSRFSGSRSGTDFTLTISSLQPEDFATYYCLQDKEFPRTFGGGTKVEIKSGAPRFLTRPKAFVVSVGKDATLSCQIVGNPTPQVSWEKDQQPVAAGARFRLAQDGDLYRLTILDLALGDSGQYVCRARNAIGEAFACVGLQVDAEA
- EC50 (hIL-5): 3.4 nM

B33: H10 (antibody)
heavy: not shown
light: B32 light with R116C, C132S, C183S, C195A
- EC50 (hIL-5): 2.86 nM

B34: H8 (antibody)
heavy: not shown
light: B32 light with C132S, C183S
- EC50 (hIL-5): 2.11 nM

B35: H9 (antibody)
heavy: not shown
light: B32 light with A110C, C132S, C183S, C195A
- EC50 (hIL-5): 2.92 nM

B36: H7 (antibody)
heavy: not shown
light: B32 light with R116C, C195A
- EC50 (hIL-5): 2.7 nM

B37: H6 (antibody)
heavy: not shown
light: B32 light with A110C, C195A
- EC50 (hIL-5): 2.1 nM

Now from value to binder:

- EC50 [1]: 3.9 nM
B1: F18 (antibody)
heavy: not shown
light: B2 light with L117K, T172H

- EC50 [1]: 1.9 nM
B3: F20 (antibody)
heavy: not shown
light: B2 light with K121L, T172K

- EC50 [1]: 2.2 nM
B4: F19 (antibody)
heavy: not shown
light: B2 light with L117K, T172H

- EC50 [1]: 4.8 nM
B5: F17 (antibody)
heavy: not shown
light: B2 light with L117K, T172K

- EC50 [1]: 3.4 nM
B6: F21 (antibody)
heavy: not shown
light: B2 light with K121L, T172K

- EC50 [1]: 4.1 nM
B7: F23 (antibody)
heavy: not shown
light: B2 light with K121L, T172H

- EC50 [1]: 2.4 nM
B8: F22 (antibody)
heavy: not shown
light: B2 light with K121L, T172H

- EC50 (hIL-5): 3.56 nM
B10: H13 (antibody)
heavy: not shown
light: B9 light with C181V, A193C

- EC50 (hIL-5): 4.26 nM
B11: H15 (antibody)
heavy: not shown
light: B9 light with C133S, C181V, C184S, A193C

- EC50 (hIL-5): 2.61 nM
B12: H14 (antibody)
heavy: not shown
light: B9 light with C133S, C184S

- EC50 [1]: 1.92 nM
B16: F33 (antibody)
heavy: not shown
light: B14 light with D111G, Q112G, P113G, Q114G, F115S, K122L, K177T

- EC50 [1]: 3.6 nM
B17: F29 (antibody)
heavy: not shown
light: B14 light with K122R

- EC50 [1]: 2.4 nM
B18: F28 (antibody)
heavy: not shown
light: B14 light with K122R

- EC50 [1]: 1.2 nM
B19: F27 (antibody)
heavy: not shown
light: B14 light with K177H

- EC50 [1]: 3.4 nM
B20: F30 (antibody)
heavy: not shown
light: B14 light with K122R, K177H

- EC50 [1]: 2.4 nM
B21: F31 (antibody)
heavy: not shown
light: B14 light with K122R, K177H

- EC50 [1]: 2.6 nM
B22: F26 (antibody)
heavy: not shown
light: B14 light with K177H

- EC50 (CEA on MKN45 cells): 5.3 nM
B24: N12 (antibody)
heavy: not shown
light: B23 light with K170H

- EC50 [1]: 3.69 nM
B25: F32 (antibody)
heavy: not shown
light: DTVVTQEPSFSVSPGGTVTLTCGLSSGSVSTSHYPSWYQQTPGQAPRMLIYNTNTRSSGVPDRFSGSILGNKAALTITGAQADDESDYYCAIHVDRDIWVFGGGTKLTVLGGGGSGGGGSSGAPRFLTRPKAFVVSVGKDATLSSQIVGNPTPQVSWEKDQQPVAAGARFRLAQDGDLYRLTILDLALGDSGQYVSRARNAIGEAFACVGLQVDAEA

- EC50 [1]: 2.38 nM
B26: F34 (antibody)
heavy: not shown
light: B25 light

- EC50 (hIL-5): 4.36 nM
B31: R12 (antibody)
heavy: not shown
light: B27 light with R116C, C132S, C183S, C195A
